Molecular target: Low-density lipoprotein receptor-related protein 1 (LRP1) (mouse (endogenous in gonadal fat tissue))

B1: Apolipoprotein A4 (APOA4) in gonadal fat tissue of WT mice injected with recombinant mouse APOA4 (natural protein)
chain: EVTSDQVANVVWDYFTQLSNNAKEAVEQFQKTDVTQQLSTLFQDKLGDASTYADGVHNKLVPFVVQLSGHLAQETERVKEEIKKELEDLRDRMMPHANKVTQTFGENMQKLQEHLKPYAVDLQDQINTQTQEMKLQLTPYIQRMQTTIKENVDNLHTSMMPLATNLKDKFNRNMEELKGHLTPRANELKATIDQNLEDLRRSLAPLTVGVQEKLNHQMEGLAFQMKKNAEELQTKVSAKIDQLQKNLAPLVEDVQSKVKGNTEGLQKSLEDLNRQLEQQVEEFRRTVEPMGEMFNKALVQQLEQFRQQLGPNSGEVESHLSFLEKSLREKVNSFMSTLEKKGSPDQPQALPLPEQAQEQAQEQAQEQVQPKPLES
glucose uptake in 3T3-L1 mature adipocytes treated with 0, 0.5, 1, 2 uM r-m-APOA4 for 1 h; percent increase against buffer (~22% at 0.5 uM, ~34% at 1 uM, ~44% at 2 uM): 44%
